One test concerns the target EGFP (Aequorea victoria). As to the kind of experiment: AUC; sedimentation velocity, 0.5 mg/mL of the isolated fluorescent protein, 25 mM phosphate buffer pH 6.2 or 7.4, 150 mM NaCl, 1% glycerol, 1 mM MgCl2, 0.5 mM beta-mercaptoethanol (legend also: 50 mM KCl), 42,000 rpm, 20 °C, interference detection, c(s) fit with Sedfit.
The next test deals with EYFP (Aequorea victoria). Described as above.

For orientation: stoichiometry N means a count of units in the complex or per binding partner. As for EGFP, the stoichiometry N with EGFP (Aequorea victoria) is 2.
With EYFP, the stoichiometry N in the test with EYFP (Aequorea victoria) was 2.

For the origin of these results see paper PMC12796366.
